Results on 1 substance are retold here after paper PMC2196193.

The Kd is the equilibrium constant for the complex coming apart.

The assay has as its target MBP-III2 (rat) (UniProt P04937). The experiment in a line: ELISA. On the technique in general: In an ELISA, binding on a coated surface is turned into a signal by an enzyme label.
Chain of UniProt P04937 (P04937 701-808): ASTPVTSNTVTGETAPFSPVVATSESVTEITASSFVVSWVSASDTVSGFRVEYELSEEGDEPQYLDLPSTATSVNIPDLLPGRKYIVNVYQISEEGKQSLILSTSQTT

In turn, “rat plasma fibronectin (from UniProt P04937 25-2477) (natural protein)” showed a Kd of 28 nM.
